This experiment addresses T1, FcγRIIa (CD32a) (UniProt P12318 34-317, limits assumed).
T1 sequence (looked up): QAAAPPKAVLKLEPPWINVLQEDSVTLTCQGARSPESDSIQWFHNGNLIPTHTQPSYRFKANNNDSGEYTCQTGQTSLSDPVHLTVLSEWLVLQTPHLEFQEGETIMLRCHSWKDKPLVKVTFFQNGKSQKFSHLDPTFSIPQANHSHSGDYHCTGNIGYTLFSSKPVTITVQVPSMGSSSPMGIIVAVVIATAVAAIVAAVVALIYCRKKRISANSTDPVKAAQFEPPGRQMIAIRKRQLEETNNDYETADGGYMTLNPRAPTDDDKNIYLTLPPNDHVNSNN
The experiment is described as follows: cell-based or functional assay.

B1: antibody-drug conjugate FDA028-LE14 (antibody, human IgG1, kappa)
light: not shown
heavy: QVQLQQWGAGLLKPSETLSLTCAVYGGSFSGYYWSWIRQPPGKGLEWIGEINHSGSTNYNPSLKSRVTISVETSKNQFSLKLSSVTAADTAVYYCARDKWTWYFDLWGRGTLVTVSSASTKGPSVFPLAPSSKSTSGGTAALGCLVKDYFPEPVTVSWNSGALTSGVHTFPAVLQSSGLYSLSSVVTVPSSSLGTQTYICNVNHKPSNTKVDKKVEPKSCDKTHTCPPCPAPPVAGGPSVFLFPPKPKDTLMISRTPEVTCVVVDVSHEDPEVKFNWYVDGVEVHNAKTKPREEQYNSTYRVVSVLTVLHQDWLNGKEYKCKVSNKALPAPIEKTISKAKGQPREPQVYTLPPSREEMTKNQVSLTCLVKGFYPSDIAVEWESNGQPENNYKTTPPVLDSDGSFFLYSKLTVDKSRWQQGNVFSCSVMHEALHNHYTQKSLSLSPGK
modifications: LE14 linker-drug as thioether on cysteines of reduced interchain disulfides; DAR 7.63 for the whole antibody
As to B1, the “IC50 value (nM), killing activity on HSC Cell” value was 334 nM and the “IC50 value (nM), killing activity on K562 Cell” value turned out to be 270 nM.

B2: antibody-drug conjugate FDA029-LE14 (antibody, human IgG1, kappa)
light: not shown
heavy: QVQLQQWGAGLLKPSETLSLTCAVYGGSFSGYYWSWIRQPPGKGLEWIGEINHSGSTNYNPSLKSRVTISVETSKNQFSLKLSSVTAADTAVYYCARDKWTWYFDLWGRGTLVTVSSASTKGPSVFPLAPSSKSTSGGTAALGCLVKDYFPEPVTVSWNSGALTSGVHTFPAVLQSSGLYSLSSVVTVPSSSLGTQTYICNVNHKPSNTKVDKKVEPKSCDKTHTCPPCPAPEFEGGPSVFLFPPKPKDTLMISRTPEVTCVVVDVSHEDPEVKFNWYVDGVEVHNAKTKPREEQYNSTYRVVSVLTVLHQDWLNGKEYKCKVSNKALPASIEKTISKAKGQPREPQVYTLPPSREEMTKNQVSLTCLVKGFYPSDIAVEWESNGQPENNYKTTPPVLDSDGSFFLYSKLTVDKSRWQQGNVFSCSVMHEALHNHYTQKSLSLSPGK
modifications: LE14 linker-drug as thioether on cysteines of reduced interchain disulfides; DAR 7.82 for the whole antibody
B2: the “IC50 value (nM), killing activity on HSC Cell” value was found to be 363 nM and the “IC50 value (nM), killing activity on K562 Cell” value was 323 nM.

These data come from US20240016949A1 (SHANGHAI FUDAN ZHANGJIANG BIO PHARMACEUTICAL, published 2024).
